# According to patent publication US7361341B2, “Methods of treating cancer using antibodies that immunospecifically bind to trail receptors” (Human Genome Sciences, Inc., priority 2001, dated 2008):
# Columns and labels:
# [1] = system: human primary hepatocytes; assay: Cell viability of human primary hepatocytes (ALAMAR Blue); type: cell-based; conditions: 24 hrs following treatment; T1014G03 62.5-1000 ng/ml, TRAIL 15.6-1000 ng/mL
# Procedure: (§1) The effect of T1014G03 (lot AB22125-M2) in human primary hepatocytes was determined by measuring either caspase activation or cell viability. Human hepatocytes were treated with 15.6, 62.5, 250 or 1000 ng/mL of TRAIL (amino acid residues 114-281, Biomol Research Laboratories Inc, Plymouth Meeting, Pa.), 62.5, 125, 250, or 1000 ng/ml of isotype control mAb (hlgG1,CAT002) or 62.5, 125, 250, or 1000 ng/ml T1014G03. Caspase activation was determined at 6 hrs following treatment, while viability was determined at 24 hrs following treatment.
# (§2) Caspase activity was measured using a fluorimetric assay utilizing the caspase substrate Rhodamine conjugated DEVD, (e.g., Homogeneous Fluorimetric Caspases Assay available from Roche Molecular Biochemicals (Indianapolis, Ind.)). Cell viability was determined using an ALAMAR Blue™ (Biosource International, Camarillo, Calif.) assay. […] In contrast to TRAIL, T1014G03 treatment was found not to effect either caspase or cell viability in human hepatocytes.
# [2] = system: human primary hepatocytes; assay: Caspase activation in human primary hepatocytes; type: cell-based; conditions: 6 hrs following treatment; T1014G03 62.5-1000 ng/ml, TRAIL 15.6-1000 ng/mL
# Procedure: as §1, §2
substance,measurement,setting,value
"TRAIL: TRAIL (amino acid residues 114-281, Biomol Research Laboratories Inc)",cell viability,[1],reduced cell viability at all concentrations tested
same,caspase activity,[2],induced caspase activity at the highest concentration tested
